Results as given in patent US20240239881A1 (Innovent, published 2024).

Biological target: T1, Rabbit ANG2 (rabbit, UniProt G1T9B3 19-496)
T1 sequence: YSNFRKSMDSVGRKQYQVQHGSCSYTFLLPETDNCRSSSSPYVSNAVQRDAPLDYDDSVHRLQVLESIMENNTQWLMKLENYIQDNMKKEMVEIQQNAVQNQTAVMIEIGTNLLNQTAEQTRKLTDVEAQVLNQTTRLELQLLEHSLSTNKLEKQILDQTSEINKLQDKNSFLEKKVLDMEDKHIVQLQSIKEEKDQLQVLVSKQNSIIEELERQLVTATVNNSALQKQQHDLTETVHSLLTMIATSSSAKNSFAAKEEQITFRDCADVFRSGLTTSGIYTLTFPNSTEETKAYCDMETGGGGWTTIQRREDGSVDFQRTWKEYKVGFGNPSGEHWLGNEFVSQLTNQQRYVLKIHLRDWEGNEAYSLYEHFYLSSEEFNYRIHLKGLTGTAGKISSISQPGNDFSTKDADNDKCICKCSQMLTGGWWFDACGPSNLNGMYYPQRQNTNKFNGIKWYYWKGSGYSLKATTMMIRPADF
Assay: SPR, Biacore T200, antibody captured on Protein G chip, experiment 2
Method: The antibody was diluted to 1 μg/mL and was captured onto channel 2 for 30 s, and channel 1 was the blank control channel. The gradient-diluted Human ANG2, Rhesus ANG2, Rabbit ANG2, Rat ANG2 and Mouse ANG2 were sequentially injected into channels 1 and 2 of the chip, from low to high concentrations (0-32 nM), at a flow rate of 30 μL/min, with one concentration per cycle, and with 180 s association time and 1200 s dissociation time at 25° C. Finally, the chip was regenerated using Glycine pH 1.5 at 30 μL/min for 30 s. The affinity assay was repeated three times.

Kd: 0.477 nM | koff: 0.000152 s⁻¹ | kon: 318000 M⁻¹ s⁻¹
B1: humanized antibody hz81H10.4 (antibody, human IgG1, kappa, V domains shown)
VH: EVQLVESGGGLVKPGGSLRLSCAASGFTFSNYWMNWVRQAPGKGLEWVAEIRLKSNNYATHYAESVKGRFTISRDVSKNTVYLQMNSLKTEDTAVYYCTDTAPFAYWGQGTLVTVSS
VL: DIQMTQSPSSLSASVGDRVTITCKASQDVGTDVAWYQQKPGKAPKLLIYWASTRHTGVPSRFSGSGSGTDFTLTISSLQPEDFATYYCQQYSSYPLTFGGGTKVEIKR
notes: also called IBI335
